Biological target: biotinylated eLtaS protein (extracellular domain of LtaS of S. aureus) (S. aureus 8325-4) (UniProt Q2G093)
Assay: SPR; biotinylated eLtaS immobilised on Sensor Chip SA; C3 and C3b injected at 300, 100, 30, 10 ug/ml; global kinetic fit

Chain of UniProt Q2G093 (Q2G093 whole entry, the tested form may be a part): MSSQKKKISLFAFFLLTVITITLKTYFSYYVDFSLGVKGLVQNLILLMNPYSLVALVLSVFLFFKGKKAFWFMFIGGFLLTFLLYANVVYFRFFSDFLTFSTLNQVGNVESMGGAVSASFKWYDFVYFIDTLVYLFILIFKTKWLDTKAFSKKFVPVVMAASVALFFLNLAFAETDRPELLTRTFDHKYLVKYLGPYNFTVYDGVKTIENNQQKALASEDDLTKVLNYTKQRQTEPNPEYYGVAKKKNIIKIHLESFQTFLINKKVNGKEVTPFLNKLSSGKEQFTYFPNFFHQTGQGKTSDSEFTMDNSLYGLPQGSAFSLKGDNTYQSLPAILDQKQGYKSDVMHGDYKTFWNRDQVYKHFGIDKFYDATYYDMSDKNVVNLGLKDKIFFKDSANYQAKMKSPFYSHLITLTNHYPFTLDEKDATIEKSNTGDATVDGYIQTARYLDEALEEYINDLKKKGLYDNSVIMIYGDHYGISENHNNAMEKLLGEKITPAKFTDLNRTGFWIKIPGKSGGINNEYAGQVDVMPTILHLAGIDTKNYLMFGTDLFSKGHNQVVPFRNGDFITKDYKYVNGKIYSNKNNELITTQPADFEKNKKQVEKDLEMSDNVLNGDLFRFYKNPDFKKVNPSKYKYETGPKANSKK

For “human complement C3 (from UniProt P01024 23-667; P01024 672-1663) (natural protein)”, the Kd was 0.687 nM, the koff was 0.00149 s⁻¹ and the kon was 2.17e+06 M⁻¹ s⁻¹.
In the case of “human complement C3b (from UniProt P01024 23-667; P01024 749-1663) (domain or fragment)”, the Kd is reported as 0.546 nM, the koff is reported as 0.00198 s⁻¹ and the kon is reported as 3.63e+06 M⁻¹ s⁻¹.

From PMC4657049
